Experiment: Solubility of the hydrophobic protein and its fragments
Format: physicochemical

B1: R16 protein: synthetic combination protein formed from silk proteins and resilins, polypeptide sequence SEQ ID NO: 4 (protein)
chain: MASMTGGQQMGRGSMGPGSSAAAAAAAASGPGQGQGQGQGQGGRPSDTYGPGSSAAAAAAAASGPGQGQGQGQGQGGRPSDTYGPGSSAAAAAAAASGPGQGQGQGQGQGGRPSDTYGPGSSAAAAAAAASGPGQGQGQGQGQGGRPSDTYGPGSSAAAAAAAASGPGQGQGQGQGQGGRPSDTYGPGSSAAAAAAAASGPGQGQGQGQGQGGRPSDTYGPGSSAAAAAAAASGPGQGQGQGQGQGGRPSDTYGPGSSAAAAAAAASGPGQGQGQGQGQGGRPSDTYGPGSSAAAAAAAASGPGQGQGQGQGQGGRPSDTYGPGSSAAAAAAAASGPGQGQGQGQGQGGRPSDTYGPGSSAAAAAAAASGPGQGQGQGQGQGGRPSDTYGPGSSAAAAAAAASGPGQGQGQGQGQGGRPSDTYGPGSSAAAAAAAASGPGQGQGQGQGQGGRPSDTYGPGSSAAAAAAAASGPGQGQGQGQGQGGRPSDTYGPGSSAAAAAAAASGPGQGQGQGQGQGGRPSDTYGPGSSAAAAAAAASGPGQGQGQGQGQGGRPSDTYG
**Q.** For B1, which solubility in water is on record?
**A.** Its solubility in water is “about 1%”.

Reference: patent US20140194025A1, “Production of Highly Concentrated Solutions of Self-Assembling Proteins” (Freudenberg Forschungsdienste KG, priority 2010, published 2014)
